Blank lines part the entries; values can stand above or below the molecule they belong to.
How the values were obtained:
[1] = target: T1, CsiR (Pseudomonas putida KT2440) (UniProt Q88IU1); assay: EMSA; settings: 10 mM Tris-HCl pH 7.4, 50 mM KCl, 0.5 mM EDTA, 10% glycerol, 1 mM DTT; 30 C, 30 min; 6% native PAGE at 4 C
T1 sequence: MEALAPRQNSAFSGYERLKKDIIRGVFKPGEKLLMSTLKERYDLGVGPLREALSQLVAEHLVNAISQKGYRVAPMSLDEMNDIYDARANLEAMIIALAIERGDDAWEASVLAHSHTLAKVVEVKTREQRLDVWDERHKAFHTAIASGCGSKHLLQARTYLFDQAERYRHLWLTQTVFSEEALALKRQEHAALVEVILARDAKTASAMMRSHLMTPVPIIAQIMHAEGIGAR

[2] = target: T2, GcdR (Pseudomonas putida KT2440) (UniProt Q88RH3); assay: EMSA; settings: 10 mM Tris-HCl pH 7.4, 50 mM KCl, 0.5 mM EDTA, 10% glycerol, 1 mM DTT; 30 C, 30 min; 6% native PAGE at 4 C
T2 sequence: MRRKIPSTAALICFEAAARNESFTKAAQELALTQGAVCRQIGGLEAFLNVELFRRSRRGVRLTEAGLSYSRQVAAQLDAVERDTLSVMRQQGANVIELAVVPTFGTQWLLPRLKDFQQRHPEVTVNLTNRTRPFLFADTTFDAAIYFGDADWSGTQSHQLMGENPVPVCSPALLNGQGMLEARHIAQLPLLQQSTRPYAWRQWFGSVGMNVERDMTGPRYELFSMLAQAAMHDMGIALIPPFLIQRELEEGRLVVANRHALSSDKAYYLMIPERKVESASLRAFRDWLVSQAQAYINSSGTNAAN

[3] = target: His6-tagged GcdR of P. putida KT2440 (Pseudomonas putida KT2440) (UniProt Q88RH3); assay: SEC; Superdex 200 10/300 GL gel filtration of purified GcdR against molecular mass standards, compared with SDS-PAGE; buffer A (20 mM sodium phosphate, 500 mM sodium chloride, pH 7.4), 0.5 ml min^-1
[4] = target: the molecule itself; assay: SEC; Superdex 200 10/300 GL gel filtration of purified CsiR against molecular mass standards, compared with SDS-PAGE; buffer C (50 mM sodium phosphate, 150 mM sodium chloride, pH 7.2), 0.5 ml min^-1

Molecule: GATCCTGTTCCTCAAAACGTTTTGCCGATCATACCGAAACCCTCTGCTGACGAAAAACAATGGACAAACACGAGTAGTGTCGTTGAAAAATAAAAATGTAGACATTTTCAGTTAGTGGCGATATTTTTACCTCGCCCGCACTGATCCAGGTCATGACCGGACGGCGCCATCTACTTTTTTAGCCAGGACACTGCC (double strand) [F1 (csiR-csiD intergenic region)]
binding [1]: binds

Molecule: GCCGCCTCGAAGCAAATCAGGGCGGCGGTACTGGGGATCTTACGGCGCATGTACGTCAACCTCACTTGTAAGGCTGTCAATAAGGCGTTTTGCCGATTTACGGAGTGACAAAATATCACTAATCGGTGCGCAATCCTCGTTTGTCGCCGCAGCCGATCAGGCCTAGGCTCAAAGGCACAAGAAACTGACCCCTATTTCGAGGATTCGCTCATGGTCGGTAAAGCAAGTTTCAACTGGATCGACCCGTTGCTGCTGGATCA (double strand)
binding [2]: binds

stoichiometry N [3]: 4
Molecule: His6-tagged GcdR of P. putida KT2440 (from UniProt Q88RH3 1-305) (natural protein)

B1: His6-tagged CsiR protein of P. putida KT2440 (natural protein, Pseudomonas putida KT2440, UniProt Q88IU1 1-231, looked up)
chain: T1 sequence
notes: CsiR, GntR family transcriptional regulator of Pseudomonas putida KT2440, encoded by csiR (pp2908); gene amplified from genomic DNA with primers csiR-F/csiR-R and cloned BamHI/HindIII into pETDuet-1; Cloning into the BamHI/HindIII sites of pETDuet-1 would usually give an N-terminal His tag (surmise); No tag cleavage is described; also called GntR family regulator CsiR; source: E. coli BL21(DE3) …
stoichiometry N [4]: 2
